# Values of other authors as cited in PMC2871139.
# Like-named read-outs stand apart in the source and are kept apart here.
# Tests used:
# A1 [1] = target: A1 (UniProt Q07440)
# A1 [2] = target: A1 (UniProt Q07440); remark: listed apart in the source
# A1 [3] = target: A1 (UniProt Q07440); remark: listed apart in the source
# A1 [4] = target: A1 (UniProt Q07440); remark: listed apart in the source
# Sequence of UniProt Q07440 (Q07440 whole entry): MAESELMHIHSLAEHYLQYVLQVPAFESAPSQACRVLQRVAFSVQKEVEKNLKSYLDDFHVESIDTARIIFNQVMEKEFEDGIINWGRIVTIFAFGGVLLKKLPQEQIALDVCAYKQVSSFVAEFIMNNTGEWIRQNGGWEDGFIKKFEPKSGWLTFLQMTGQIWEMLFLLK
substance,measurement,setting,value
Bmf BH3 (from UniProt Q91ZE9),Kd,A1 [1],180 nM
Bid BH3 (from UniProt P70444),Kd,A1 [2],< 3 nM
Puma BH3 (from UniProt Q9BXH1),Kd,A1 [3],< 3 nM
Bak BH3 (from UniProt O08734),Kd,A1 [4],< 3 nM
